In US20240400708A1:

Key:
[1] = molecular target: feline FcRn complex (FcRn-α subunit and β-microglobulin) (feline); experiment: SPR (Biacore), FcRn on SA chip, pH 6
[2] = molecular target: feline FcRn complex (FcRn-α subunit and β-microglobulin) (feline); experiment: SPR (Biacore), FcRn on SA chip, pH 7.4

Binder | Kd [1] | Kd [2]
feline IgG1a mutant ID No. 326: S428Y, D312P, S434Y, P247V, S252H (antibody, part only; not given: Variable domains, not shown: another chain or arm of the molecule; small tags and cut ends) constant: ASTTAPSVFPLAPSCGTTSGATVALACLVLGYFPEPVTVSWNSGALTSGVHTFPAVLQASGLYSLSSMVTVPSSRWLSDTFTCNVAHPPSNTKVDKTVRKTDHPPGPKPCDCPKCPPPEMLGGPSIFIFPPKVKDTLHISRTPEVTCLVVDLGPDDSDVQITWFVDNTQVYTAKTSPREEQFNSTYRVVSVLPILHQPWLKGKEFKCKVNSKSLPSPIERTISKAKGQPHEPQVYVLPPAQEELSRNKVSVTCLIKSFHPPDIAVEWEITGQPEPENNYRTTPPQLDSDGTYFVYSKLSVDRSHWQRGNTYTCSVYHEALHYHHTQKSLTQSPGK | 0.0627 nM | 13.7 nM
feline IgG1a mutant ID No. 328: S428Y, D312P, S434Y, P247V, T250Q, S252H (antibody, part only; not given: Variable domains, not shown: another chain or arm of the molecule; small tags and cut ends) constant: ASTTAPSVFPLAPSCGTTSGATVALACLVLGYFPEPVTVSWNSGALTSGVHTFPAVLQASGLYSLSSMVTVPSSRWLSDTFTCNVAHPPSNTKVDKTVRKTDHPPGPKPCDCPKCPPPEMLGGPSIFIFPPKVKDQLHISRTPEVTCLVVDLGPDDSDVQITWFVDNTQVYTAKTSPREEQFNSTYRVVSVLPILHQPWLKGKEFKCKVNSKSLPSPIERTISKAKGQPHEPQVYVLPPAQEELSRNKVSVTCLIKSFHPPDIAVEWEITGQPEPENNYRTTPPQLDSDGTYFVYSKLSVDRSHWQRGNTYTCSVYHEALHYHHTQKSLTQSPGK | 0.0418 nM | 8.68 nM
feline IgG1a mutant ID No. 333: S428Y, D312P, S434Y, Q311Y, L314K (antibody, part only; not given: Variable domains, not shown: another chain or arm of the molecule; small tags and cut ends) constant: ASTTAPSVFPLAPSCGTTSGATVALACLVLGYFPEPVTVSWNSGALTSGVHTFPAVLQASGLYSLSSMVTVPSSRWLSDTFTCNVAHPPSNTKVDKTVRKTDHPPGPKPCDCPKCPPPEMLGGPSIFIFPPKPKDTLSISRTPEVTCLVVDLGPDDSDVQITWFVDNTQVYTAKTSPREEQFNSTYRVVSVLPILHYPWKKGKEFKCKVNSKSLPSPIERTISKAKGQPHEPQVYVLPPAQEELSRNKVSVTCLIKSFHPPDIAVEWEITGQPEPENNYRTTPPQLDSDGTYFVYSKLSVDRSHWQRGNTYTCSVYHEALHYHHTQKSLTQSPGK | 0.908 nM | 25.9 nM
feline IgG1a mutant ID No. 334: S428Y, D312P, S434Y, T250Q, S252H (antibody, part only; not given: Variable domains, not shown: another chain or arm of the molecule) constant: ASTTAPSVFPLAPSCGTTSGATVALACLVLGYFPEPVTVSWNSGALTSGVHTFPAVLQASGLYSLSSMVTVPSSRWLSDTFTCNVAHPPSNTKVDKTVRKTDHPPGPKPCDCPKCPPPEMLGGPSIFIFPPKPKDQLHISRTPEVTCLVVDLGPDDSDVQITWFVDNTQVYTAKTSPREEQFNSTYRVVSVLPILHQPWLKGKEFKCKVNSKSLPSPIERTISKAKGQPHEPQVYVLPPAQEELSRNKVSVTCLIKSFHPPDIAVEWEITGQPEPENNYRTTPPQLDSDGTYFVYSKLSVDRSHWQRGNTYTCSVYHEALHYHHTQKSLTQSPGK | 0.182 nM | 19.9 nM
feline IgG1a mutant ID No. 331: S428Y, D312P, S434Y, Q311M, L314K (antibody, part only; not given: Variable domains, not shown: another chain or arm of the molecule; small tags and cut ends) constant: ASTTAPSVFPLAPSCGTTSGATVALACLVLGYFPEPVTVSWNSGALTSGVHTFPAVLQASGLYSLSSMVTVPSSRWLSDTFTCNVAHPPSNTKVDKTVRKTDHPPGPKPCDCPKCPPPEMLGGPSIFIFPPKPKDTLSISRTPEVTCLVVDLGPDDSDVQITWFVDNTQVYTAKTSPREEQFNSTYRVVSVLPILHMPWKKGKEFKCKVNSKSLPSPIERTISKAKGQPHEPQVYVLPPAQEELSRNKVSVTCLIKSFHPPDIAVEWEITGQPEPENNYRTTPPQLDSDGTYFVYSKLSVDRSHWQRGNTYTCSVYHEALHYHHTQKSLTQSPGK | 0.259 nM | 14.6 nM
feline IgG1a mutant ID No. 335: T250Q, S252H (antibody, part only; not given: Variable domains, not shown: another chain or arm of the molecule) constant: ASTTAPSVFPLAPSCGTTSGATVALACLVLGYFPEPVTVSWNSGALTSGVHTFPAVLQASGLYSLSSMVTVPSSRWLSDTFTCNVAHPPSNTKVDKTVRKTDHPPGPKPCDCPKCPPPEMLGGPSIFIFPPKPKDQLHISRTPEVTCLVVDLGPDDSDVQITWFVDNTQVYTAKTSPREEQFNSTYRVVSVLPILHQDWLKGKEFKCKVNSKSLPSPIERTISKAKGQPHEPQVYVLPPAQEELSRNKVSVTCLIKSFHPPDIAVEWEITGQPEPENNYRTTPPQLDSDGTYFVYSKLSVDRSHWQRGNTYTCSVSHEALHSHHTQKSLTQSPGK | 8.02 nM | 36.9 nM
feline IgG1a mutant ID No. 336: S252Y, S428M, S434F, A431K (antibody, part only; not given: Variable domains, not shown: another chain or arm of the molecule) constant: ASTTAPSVFPLAPSCGTTSGATVALACLVLGYFPEPVTVSWNSGALTSGVHTFPAVLQASGLYSLSSMVTVPSSRWLSDTFTCNVAHPPSNTKVDKTVRKTDHPPGPKPCDCPKCPPPEMLGGPSIFIFPPKPKDTLYISRTPEVTCLVVDLGPDDSDVQITWFVDNTQVYTAKTSPREEQFNSTYRVVSVLPILHQDWLKGKEFKCKVNSKSLPSPIERTISKAKGQPHEPQVYVLPPAQEELSRNKVSVTCLIKSFHPPDIAVEWEITGQPEPENNYRTTPPQLDSDGTYFVYSKLSVDRSHWQRGNTYTCSVMHEKLHFHHTQKSLTQSPGK | 0.0359 nM | 7.28 nM
feline IgG1a mutant ID No. 332: S428Y, D312P, S434Y, Q311R, L314K (antibody, part only; not given: Variable domains, not shown: another chain or arm of the molecule; small tags and cut ends) constant: ASTTAPSVFPLAPSCGTTSGATVALACLVLGYFPEPVTVSWNSGALTSGVHTFPAVLQASGLYSLSSMVTVPSSRWLSDTFTCNVAHPPSNTKVDKTVRKTDHPPGPKPCDCPKCPPPEMLGGPSIFIFPPKPKDTLSISRTPEVTCLVVDLGPDDSDVQITWFVDNTQVYTAKTSPREEQFNSTYRVVSVLPILHRPWKKGKEFKCKVNSKSLPSPIERTISKAKGQPHEPQVYVLPPAQEELSRNKVSVTCLIKSFHPPDIAVEWEITGQPEPENNYRTTPPQLDSDGTYFVYSKLSVDRSHWQRGNTYTCSVYHEALHYHHTQKSLTQSPGK | 0.332 nM | 28.6 nM
feline IgG1a mutant ID No. 327: S428Y, D312P, S434Y, P247V, T250Q (antibody, part only; not given: Variable domains, not shown: another chain or arm of the molecule; small tags and cut ends) constant: ASTTAPSVFPLAPSCGTTSGATVALACLVLGYFPEPVTVSWNSGALTSGVHTFPAVLQASGLYSLSSMVTVPSSRWLSDTFTCNVAHPPSNTKVDKTVRKTDHPPGPKPCDCPKCPPPEMLGGPSIFIFPPKVKDQLSISRTPEVTCLVVDLGPDDSDVQITWFVDNTQVYTAKTSPREEQFNSTYRVVSVLPILHQPWLKGKEFKCKVNSKSLPSPIERTISKAKGQPHEPQVYVLPPAQEELSRNKVSVTCLIKSFHPPDIAVEWEITGQPEPENNYRTTPPQLDSDGTYFVYSKLSVDRSHWQRGNTYTCSVYHEALHYHHTQKSLTQSPGK | 0.221 nM | 27.4 nM
feline IgG1a mutant ID No. 329: S428Y, D312P, S434Y, Q311H, L314K (antibody, part only; not given: Variable domains, not shown: another chain or arm of the molecule; small tags and cut ends) constant: ASTTAPSVFPLAPSCGTTSGATVALACLVLGYFPEPVTVSWNSGALTSGVHTFPAVLQASGLYSLSSMVTVPSSRWLSDTFTCNVAHPPSNTKVDKTVRKTDHPPGPKPCDCPKCPPPEMLGGPSIFIFPPKPKDTLSISRTPEVTCLVVDLGPDDSDVQITWFVDNTQVYTAKTSPREEQFNSTYRVVSVLPILHHPWKKGKEFKCKVNSKSLPSPIERTISKAKGQPHEPQVYVLPPAQEELSRNKVSVTCLIKSFHPPDIAVEWEITGQPEPENNYRTTPPQLDSDGTYFVYSKLSVDRSHWQRGNTYTCSVYHEALHYHHTQKSLTQSPGK | 0.338 nM | 18.9 nM

Results, then the binder that gave them:

Kd [1] | Kd [2] | Binder
0.025 nM | 3.3 nM | feline IgG1a mutant ID No. 340: S252Y, S428M, S434F, Q311R (antibody, part only; not given: Variable domains, not shown: another chain or arm of the molecule) constant: ASTTAPSVFPLAPSCGTTSGATVALACLVLGYFPEPVTVSWNSGALTSGVHTFPAVLQASGLYSLSSMVTVPSSRWLSDTFTCNVAHPPSNTKVDKTVRKTDHPPGPKPCDCPKCPPPEMLGGPSIFIFPPKPKDTLYISRTPEVTCLVVDLGPDDSDVQITWFVDNTQVYTAKTSPREEQFNSTYRVVSVLPILHRDWLKGKEFKCKVNSKSLPSPIERTISKAKGQPHEPQVYVLPPAQEELSRNKVSVTCLIKSFHPPDIAVEWEITGQPEPENNYRTTPPQLDSDGTYFVYSKLSVDRSHWQRGNTYTCSVMHEALHFHHTQKSLTQSPGK
0.0272 nM | 13.8 nM | feline IgG1a mutant ID No. 338: S252Y, S428M, S434F, D399T (antibody, part only; not given: variable domains and light chain, not shown: another chain or arm of the molecule) constant: ASTTAPSVFPLAPSCGTTSGATVALACLVLGYFPEPVTVSWNSGALTSGVHTFPAVLQASGLYSLSSMVTVPSSRWLSDTFTCNVAHPPSNTKVDKTVRKTDHPPGPKPCDCPKCPPPEMLGGPSIFIFPPKPKDTLYISRTPEVTCLVVDLGPDDSDVQITWFVDNTQVYTAKTSPREEQFNSTYRVVSVLPILHQDWLKGKEFKCKVNSKSLPSPIERTISKAKGQPHEPQVYVLPPAQEELSRNKVSVTCLIKSFHPPDIAVEWEITGQPEPENNYRTTPPQLTSDGTYFVYSKLSVDRSHWQRGNTYTCSVMHEALHFHHTQKSLTQSPGK
0.0272 nM | 8.96 nM | feline IgG1a mutant ID No. 337: S252Y, S428M, S434F, D312H (antibody, part only; not given: Variable domains, not shown: another chain or arm of the molecule) constant: ASTTAPSVFPLAPSCGTTSGATVALACLVLGYFPEPVTVSWNSGALTSGVHTFPAVLQASGLYSLSSMVTVPSSRWLSDTFTCNVAHPPSNTKVDKTVRKTDHPPGPKPCDCPKCPPPEMLGGPSIFIFPPKPKDTLYISRTPEVTCLVVDLGPDDSDVQITWFVDNTQVYTAKTSPREEQFNSTYRVVSVLPILHQHWLKGKEFKCKVNSKSLPSPIERTISKAKGQPHEPQVYVLPPAQEELSRNKVSVTCLIKSFHPPDIAVEWEITGQPEPENNYRTTPPQLDSDGTYFVYSKLSVDRSHWQRGNTYTCSVMHEALHFHHTQKSLTQSPGK
0.0168 nM | 6.73 nM | feline IgG1a mutant ID No. 339: S252Y, S428M, S434F, P247L (antibody, part only; not given: Variable domains, not shown: another chain or arm of the molecule) constant: ASTTAPSVFPLAPSCGTTSGATVALACLVLGYFPEPVTVSWNSGALTSGVHTFPAVLQASGLYSLSSMVTVPSSRWLSDTFTCNVAHPPSNTKVDKTVRKTDHPPGPKPCDCPKCPPPEMLGGPSIFIFPPKLKDTLYISRTPEVTCLVVDLGPDDSDVQITWFVDNTQVYTAKTSPREEQFNSTYRVVSVLPILHQDWLKGKEFKCKVNSKSLPSPIERTISKAKGQPHEPQVYVLPPAQEELSRNKVSVTCLIKSFHPPDIAVEWEITGQPEPENNYRTTPPQLDSDGTYFVYSKLSVDRSHWQRGNTYTCSVMHEALHFHHTQKSLTQSPGK
0.0353 nM | 6.5 nM | feline IgG1a mutant ID No. 341: S252Y, S428M, S434F, D312A (antibody, part only; not given: Variable domains, not shown: another chain or arm of the molecule; small tags and cut ends) constant: ASTTAPSVFPLAPSCGTTSGATVALACLVLGYFPEPVTVSWNSGALTSGVHTFPAVLQASGLYSLSSMVTVPSSRWLSDTFTCNVAHPPSNTKVDKTVRKTDHPPGPKPCDCPKCPPPEMLGGPSIFIFPPKPKDTLYISRTPEVTCLVVDLGPDDSDVQITWFVDNTQVYTAKTSPREEQFNSTYRVVSVLPILHQAWLKGKEFKCKVNSKSLPSPIERTISKAKGQPHEPQVYVLPPAQEELSRNKVSVTCLIKSFHPPDIAVEWEITGQPEPENNYRTTPPQLDSDGTYFVYSKLSVDRSHWQRGNTYTCSVMHEALHFHHTQKSLTQSPGK
